{
  "source": "patent US20220064329A1",
  "about": "(Novo Nordisk, published 2022)",
  "data": [
    {"target": "T1, recombinant human activated Factor VII (FVIIa) (human, UniProt P08709 61-212; P08709 213-466, ten glutamate residues of the Gla domain may be gamma-carboxylated)", "T1 construct": "chains tethered by a disulfide bond; also called Factor VIIa; rFVIIa", "T1 sequence 1": "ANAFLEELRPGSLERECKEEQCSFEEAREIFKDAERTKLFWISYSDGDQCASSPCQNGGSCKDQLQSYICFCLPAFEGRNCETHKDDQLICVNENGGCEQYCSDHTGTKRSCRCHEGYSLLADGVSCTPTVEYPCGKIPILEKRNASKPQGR", "T1 sequence 2": "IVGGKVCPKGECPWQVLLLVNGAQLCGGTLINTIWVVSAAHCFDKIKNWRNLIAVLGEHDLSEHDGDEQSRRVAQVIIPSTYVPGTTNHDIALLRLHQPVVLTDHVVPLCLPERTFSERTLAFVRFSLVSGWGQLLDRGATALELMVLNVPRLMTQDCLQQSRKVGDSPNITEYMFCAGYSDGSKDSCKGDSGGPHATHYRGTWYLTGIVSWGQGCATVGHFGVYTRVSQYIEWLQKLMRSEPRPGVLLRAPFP", "assay": "BLI (Fortebio)", "procedure": "All steps were performed in running buffer (20 mM HEPES buffer (pH 7.4), 150 mM NaCl, 5 mM CaCl2, 0.03% Tween 20, 1 mg/ml IgG-free BSA) at […] Antibodies were captured on anti-human tips (AHC, Fortebio) for 3 min at a concentration of 10 ug/ml. This was followed by a 3 min incubation to establish a baseline. Following this, association was monitored for 3 min using four different concentrations of VIIa (25 nm, 50 nM, 100 nM, and 200 nM), followed by a 3 mi dissociation. Sensorgrams were analysed using Fortebio data analysis software.", "units": {"Kd": "nM"}, "values": [
      {"binder": "VH SEQ ID NO 626 / VL SEQ ID NO 470 (antibody, IgG4, V domains shown, humanized 11F2; IgG4 S228P/kappa) VH: QVQLQESGPGLVKPSQTLSLTCTVSGYSISSDSAWSWIRQPPGKGLEWIGYIQYSGSTNYNPSLKSRVTISRDTSKNQFSLKLSSVTAADTAVYYCARSVNYYGNSFAVGPWGQGTLVTVSS VL: EIVLTQSPATLSLSPGERATLSCRASQGVSDYLHWYQQKPGQAPRLLIKYASQPATGIPARFSGSGSGTDFTLTISSLEPEDFAVYYCQNGHSFPLTFGQGTKLEIK", "Kd": 1.1},
      {"binder": "VH SEQ ID NO 314 / VL SEQ ID NO 478 (antibody, IgG4, V domains shown, humanized 11F2; IgG4 S228P/kappa) VH: QVQLQESGPGLVEPSDTLSLTCAVSGYSISSDSAWSWIRQPPGKGLEWIGYIQYSGSTNYNPSLKSRVTMSVDTSKNQFSLKLSSVTALDTAVYYCARSVNYYGNSFAVGPWGQGTLVTVSS VL: EIVLTQSPATLSLSPGERATLSCRASQGVSDYLHWYQQKPGQAPRLLIKYASQPATGIPARFSGSGSGTDFTLTISSLEPEDFAVYYCQQGHSFPLTFGQGTKLEIK", "Kd": 64},
      {"binder": "VH SEQ ID NO 314 / VL SEQ ID NO 342 (antibody, IgG4, V domains shown, humanized 11F2; IgG4 S228P/kappa) VH: QVQLQESGPGLVEPSDTLSLTCAVSGYSISSDSAWSWIRQPPGKGLEWIGYIQYSGSTNYNPSLKSRVTMSVDTSKNQFSLKLSSVTALDTAVYYCARSVNYYGNSFAVGPWGQGTLVTVSS VL: EIVLTQSPATLSLSPGERATLSCRASQGISDYLHWYQQKPGQAPRLLIKYTSQPATGIPARFSGSGSGRDFTLTISSLEPEDFAVYYCQNGHSFPLTFGAGTKLELK", "Kd": 28},
      {"binder": "VH SEQ ID NO 314 / VL SEQ ID NO 326 (antibody, IgG4, V domains shown, humanized 11F2; IgG4 S228P/kappa) VH: QVQLQESGPGLVEPSDTLSLTCAVSGYSISSDSAWSWIRQPPGKGLEWIGYIQYSGSTNYNPSLKSRVTMSVDTSKNQFSLKLSSVTALDTAVYYCARSVNYYGNSFAVGPWGQGTLVTVSS VL: EIVLTQSPATLSLSPGERATLSCRASQGISDYLHWYQQKPGEAPRLLIKYTSQPATGIPARFSGSGSGTDFTLTISSLEPEDFGVYYCQNGHSFPLTFGAGTKLELK", "Kd": 15},
      {"binder": "VH SEQ ID NO 514 / VL SEQ ID NO 350 (antibody, IgG4, V domains shown, humanized 11F2; IgG4 S228P/kappa) VH: QVQLQESGPGLVEPSDTLSLTCAVSGYSITSDSAWSWIRQPPGKKLEWIGYIQYSGSTNYNPSLKSRVTMSRDTSKNQFSLKLSSVTALDTAVYYCARSVNYYGNSFAVGYWGQGTLVTVSS VL: EIVLTQSPATLSLSPGERATLSCRASQGISDYLHWYQQKPGQAPRLLIKYTSQPATGIPARFSGSGSGTDFTLTISSLEPEDFAVYYCQNGHSFPLTFGAGTKLELK", "Kd": 0.94},
      {"binder": "VH SEQ ID NO 314 / VL SEQ ID NO 382 (antibody, IgG4, V domains shown, humanized 11F2; IgG4 S228P/kappa) VH: QVQLQESGPGLVEPSDTLSLTCAVSGYSISSDSAWSWIRQPPGKGLEWIGYIQYSGSTNYNPSLKSRVTMSVDTSKNQFSLKLSSVTALDTAVYYCARSVNYYGNSFAVGPWGQGTLVTVSS VL: EIVLTQSPATLSLSPGERATLSCRASQGLSDYLHWYQQKPGEAPRLLIKYASQPATGIPARFSGSGSGTDFTLTISSLEPEDFAVYYCQNGHSFPLTFGQGTKLEIK", "Kd": 27},
      {"binder": "VH SEQ ID NO 314 / VL SEQ ID NO 462 (antibody, IgG4, V domains shown, humanized 11F2; IgG4 S228P/kappa) VH: QVQLQESGPGLVEPSDTLSLTCAVSGYSISSDSAWSWIRQPPGKGLEWIGYIQYSGSTNYNPSLKSRVTMSVDTSKNQFSLKLSSVTALDTAVYYCARSVNYYGNSFAVGPWGQGTLVTVSS VL: EIVLTQSPATLSLSPGERATLSCRASQGVSDYLHWYQQKPGQAPRLLIKYASQPATGIPARFSGSGSGTDFTLTISSLEPEDFAVYYCQNGHSFPLTFGAGTKLEIK", "Kd": 26},
      {"binder": "VH SEQ ID NO 314 / VL SEQ ID NO 494 (antibody, IgG4, V domains shown, humanized 11F2; IgG4 S228P/kappa) VH: QVQLQESGPGLVEPSDTLSLTCAVSGYSISSDSAWSWIRQPPGKGLEWIGYIQYSGSTNYNPSLKSRVTMSVDTSKNQFSLKLSSVTALDTAVYYCARSVNYYGNSFAVGPWGQGTLVTVSS VL: EIVLTQSPATLSLSPGERATLSCRASQGVSDYLHWYQQKPGQAPRLLIKYASQPATGIPARFSGSGSGTDFTLTISSLEPEDVAVYYCQNGHSFPLTFGQGTKLEIK", "Kd": 28},
      {"binder": "VH SEQ ID NO 314 / VL SEQ ID NO 350 (antibody, IgG4, V domains shown, humanized 11F2; IgG4 S228P/kappa) VH: QVQLQESGPGLVEPSDTLSLTCAVSGYSISSDSAWSWIRQPPGKGLEWIGYIQYSGSTNYNPSLKSRVTMSVDTSKNQFSLKLSSVTALDTAVYYCARSVNYYGNSFAVGPWGQGTLVTVSS VL: EIVLTQSPATLSLSPGERATLSCRASQGISDYLHWYQQKPGQAPRLLIKYTSQPATGIPARFSGSGSGTDFTLTISSLEPEDFAVYYCQNGHSFPLTFGAGTKLELK", "Kd": 19},
      {"binder": "VH SEQ ID NO 314 / VL SEQ ID NO 486 (antibody, IgG4, V domains shown, humanized 11F2; IgG4 S228P/kappa) VH: QVQLQESGPGLVEPSDTLSLTCAVSGYSISSDSAWSWIRQPPGKGLEWIGYIQYSGSTNYNPSLKSRVTMSVDTSKNQFSLKLSSVTALDTAVYYCARSVNYYGNSFAVGPWGQGTLVTVSS VL: EIVLTQSPATLSLSPGERATLSCRASQGVSDYLHWYQQKPGQAPRLLIKYASQPATGIPARFSGSGSGTDFTLTISSLEPEDFGVYYCQNGHSFPLTFGQGTKLEIK", "Kd": 22},
      {"binder": "VH SEQ ID NO 314 / VL SEQ ID NO 334 (antibody, IgG4, V domains shown, humanized 11F2; IgG4 S228P/kappa) VH: QVQLQESGPGLVEPSDTLSLTCAVSGYSISSDSAWSWIRQPPGKGLEWIGYIQYSGSTNYNPSLKSRVTMSVDTSKNQFSLKLSSVTALDTAVYYCARSVNYYGNSFAVGPWGQGTLVTVSS VL: EIVLTQSPATLSLSPGERATLSCRASQGISDYLHWYQQKPGQAPRLLIKYASQPATGIPARFSGSGSGTDFTLTISSLEPEDFAVYYCQNGHSFPLTFGQGTKLEIK", "Kd": 21},
      {"binder": "VH SEQ ID NO 314 / VL SEQ ID NO 470 (antibody, IgG4, V domains shown, humanized 11F2; IgG4 S228P/kappa) VH: QVQLQESGPGLVEPSDTLSLTCAVSGYSISSDSAWSWIRQPPGKGLEWIGYIQYSGSTNYNPSLKSRVTMSVDTSKNQFSLKLSSVTALDTAVYYCARSVNYYGNSFAVGPWGQGTLVTVSS VL: EIVLTQSPATLSLSPGERATLSCRASQGVSDYLHWYQQKPGQAPRLLIKYASQPATGIPARFSGSGSGTDFTLTISSLEPEDFAVYYCQNGHSFPLTFGQGTKLEIK", "Kd": 20},
      {"binder": "VH SEQ ID NO 314 / VL SEQ ID NO 358 (antibody, IgG4, V domains shown, humanized 11F2; IgG4 S228P/kappa) VH: QVQLQESGPGLVEPSDTLSLTCAVSGYSISSDSAWSWIRQPPGKGLEWIGYIQYSGSTNYNPSLKSRVTMSVDTSKNQFSLKLSSVTALDTAVYYCARSVNYYGNSFAVGPWGQGTLVTVSS VL: EIVLTQSPATLSLSPGERATLSCRASQGISDYLHWYQQKPGQAPRLLIKYTSQPATGIPARFSGSGSGTDFTLTISSLEPEDFAVYYCQNGHSFPLTFGQGTKLEIK", "Kd": 18},
      {"binder": "VH SEQ ID NO 314 / VL SEQ ID NO 318 (antibody, IgG4, V domains shown, humanized 11F2; IgG4 S228P/kappa) VH: QVQLQESGPGLVEPSDTLSLTCAVSGYSISSDSAWSWIRQPPGKGLEWIGYIQYSGSTNYNPSLKSRVTMSVDTSKNQFSLKLSSVTALDTAVYYCARSVNYYGNSFAVGPWGQGTLVTVSS VL: EIVLTQSPATLSLSPGERATLSCRASQGISDYLHWYQQKPGEAPRLLIKYTSQPATGIPARFSGSGSGTDFTLTISSLEPEDFAVYYCQNGHSFPLTFGQGTKLEIK", "Kd": 17},
      {"binder": "VH SEQ ID NO 514 / VL SEQ ID NO 310 (antibody, IgG4, V domains shown, humanized 11F2; IgG4 S228P/kappa) VH: QVQLQESGPGLVEPSDTLSLTCAVSGYSITSDSAWSWIRQPPGKKLEWIGYIQYSGSTNYNPSLKSRVTMSRDTSKNQFSLKLSSVTALDTAVYYCARSVNYYGNSFAVGYWGQGTLVTVSS VL: EIVLTQSPATLSLSPGERATLSCRASQGISDYLAWYQQKPGQAPRLLIKYASQPATGIPARFSGSGSGTDFTLTISSLEPEDFAVYYCQNGHSFPLTFGQGTKLEIK", "Kd": 3.1},
      {"binder": "VH SEQ ID NO 314 / VL SEQ ID NO 502 (antibody, IgG4, V domains shown, humanized 11F2; IgG4 S228P/kappa) VH: QVQLQESGPGLVEPSDTLSLTCAVSGYSISSDSAWSWIRQPPGKGLEWIGYIQYSGSTNYNPSLKSRVTMSVDTSKNQFSLKLSSVTALDTAVYYCARSVNYYGNSFAVGPWGQGTLVTVSS VL: EIVLTQSPATLSLSPGERATLSCRASQGVSDYLHWYQQKPGQAPRLLIKYTSQPATGIPARFSGSGSGTDFTLTISSLEPEDFAVYYCQNGHSFPLTFGQGTKLEIK", "Kd": 25},
      {"binder": "VH SEQ ID NO 514 / VL SEQ ID NO 318 (antibody, IgG4, V domains shown, humanized 11F2; IgG4 S228P/kappa) VH: QVQLQESGPGLVEPSDTLSLTCAVSGYSITSDSAWSWIRQPPGKKLEWIGYIQYSGSTNYNPSLKSRVTMSRDTSKNQFSLKLSSVTALDTAVYYCARSVNYYGNSFAVGYWGQGTLVTVSS VL: EIVLTQSPATLSLSPGERATLSCRASQGISDYLHWYQQKPGEAPRLLIKYTSQPATGIPARFSGSGSGTDFTLTISSLEPEDFAVYYCQNGHSFPLTFGQGTKLEIK", "Kd": 0.99},
      {"binder": "VH SEQ ID NO 514 / VL SEQ ID NO 334 (antibody, IgG4, V domains shown, humanized 11F2; IgG4 S228P/kappa) VH: QVQLQESGPGLVEPSDTLSLTCAVSGYSITSDSAWSWIRQPPGKKLEWIGYIQYSGSTNYNPSLKSRVTMSRDTSKNQFSLKLSSVTALDTAVYYCARSVNYYGNSFAVGYWGQGTLVTVSS VL: EIVLTQSPATLSLSPGERATLSCRASQGISDYLHWYQQKPGQAPRLLIKYASQPATGIPARFSGSGSGTDFTLTISSLEPEDFAVYYCQNGHSFPLTFGQGTKLEIK", "Kd": 1.1},
      {"binder": "VH SEQ ID NO 314 / VL SEQ ID NO 454 (antibody, IgG4, V domains shown, humanized 11F2; IgG4 S228P/kappa) VH: QVQLQESGPGLVEPSDTLSLTCAVSGYSISSDSAWSWIRQPPGKGLEWIGYIQYSGSTNYNPSLKSRVTMSVDTSKNQFSLKLSSVTALDTAVYYCARSVNYYGNSFAVGPWGQGTLVTVSS VL: EIVLTQSPATLSLSPGERATLSCRASQGVSDYLHWYQQKPGEAPRLLIKYASQPATGIPARFSGSGSGTDFTLTISSLEPEDFAVYYCQNGHSFPLTFGQGTKLEIK", "Kd": 32}
    ]}
  ]
}
